Our source for the Kd, koff and kon values is US20240123029A1.

This test addresses SARS-CoV-2 S protein trimer, His Tag (in house, EXPI293F cells) (SARS-CoV-2) (UniProt P0DTC2).

Recombinant human mannose binding lectin (MBL), sequence (P11226 21-248 limits assumed): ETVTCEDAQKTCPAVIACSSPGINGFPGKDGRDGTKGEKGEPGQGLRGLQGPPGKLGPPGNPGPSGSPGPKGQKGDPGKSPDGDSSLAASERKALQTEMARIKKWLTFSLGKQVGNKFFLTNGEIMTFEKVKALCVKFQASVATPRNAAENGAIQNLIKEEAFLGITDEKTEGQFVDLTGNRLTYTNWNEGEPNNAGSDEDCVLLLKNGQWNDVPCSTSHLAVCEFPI

As a reminder, the Kd is a measure of binding affinity in units of concentration. Usually koff stands for the first-order rate constant of dissociation. Higher therefore signals fast dissociation. In general, kon refers to a measure of how fast the partners come together. Read a low kon as slow association. With “Recombinant human mannose binding lectin (MBL) (from UniProt P11226 21-248)”, the dissociation constant (Kd) was 0.034 µM, the koff came out at 0.00073 s⁻¹ and the kon amounted to 21000 M⁻¹ s⁻¹.
